To fix the notation:
B1: AMOTL2 peptide 66-81 (Angiomotin-like protein 2), 16-mer library wild type / TNKS ANK (TNKS 12 ANK repeats, residues 174-649) (parent complex)
chain 1: LQQATRQEPQGQEHQG
chain 2: TGVPAVSGALRELLEACRNGDVSRVKRLVDAANVNAKDMAGRKSSPLHFAAGFGRKDVVEHLLQMGANVHARDDGGLIPLHNACSFGHAEVVSLLLCQGADPNARDNWNYTPLHEAAIKGKIDVCIVLLQHGADPNIRNTDGKSALDLADPSAKAVLTGEYKKDELLEAARSGNEEKLMALLTPLNVNCHASDGRKSTPLHLAAGYNRVRIVQLLLQHGADVHAKDKGGLVPLHNACSYGHYEVTELLLKHGACVNAMDLWQFTPLHEAASKNRVEVCSLLLSHGADPTLVNCHGKSAVDMAPTPELRERLTYEFKGHSLLQAAREADLAKVKKTLALEIINFKQPQSHETALHCAVASLHPKRKQVTELLLRKGANVNEKNKDFMTPLHVAAERAHNDVMEVLHKHGAKMNALDTLGQTALHRAALAGHLQTCRLLLSYGSDPSIISLQGFTAAQMGNEAVQQILSESTPIRTSD
B2: AMOTL2 peptide 64-79 (Angiomotin-like protein 2), 16-mer library wild type / TNKS ANK (TNKS 12 ANK repeats, residues 174-649) (parent complex)
chain 1: QVLQQATRQEPQGQEH
chain 2: B1 chain 2

The variants in the first test derive from B1. Kind of test: proteomic peptide phage display deep mutational scan (ProP-PD DMS): M13 P8 16-mer library selected against immobilised GST-tagged bait for four days (rounds), NGS of the eluted pools per day and pseudo-replica; bait immobilised on MaxiSorp plates (10 µg), library pre-cleared on GST, 2 h binding at 4 °C, five washes; one round per day, days 1-4; value from days 2 and 3.
For the variant chain 1 E13L, the screen value is 0.000144 average fractional NGS count over selection days 2 and 3 (reads of this peptide / all reads for the bait, averaged over ….
Same read-out and setting: then chain 1 E13A, with 0.000224 average fractional NGS count over selection days 2 and 3 (reads of this peptide / all reads for the bait, averaged over …; and chain 1 Q10L, with 0.00347 average fractional NGS count over selection days 2 and 3 (reads of this peptide / all reads for the bait, averaged over …; and chain 1 Q10I, with 0.000713 average fractional NGS count over selection days 2 and 3 (reads of this peptide / all reads for the bait, averaged over ….
Take chain 1 Q10E: the screen value was 0.000182 average fractional NGS count over selection days 2 and 3 (reads of this peptide / all reads for the bait, averaged over ….
On the same count and under the same terms, then chain 1 H14M, with 0.000405 average fractional NGS count over selection days 2 and 3 (reads of this peptide / all reads for the bait, averaged over ….
Still for that read-out and setting: then chain 1 H14V, with 0.00237 average fractional NGS count over selection days 2 and 3 (reads of this peptide / all reads for the bait, averaged over …; and chain 1 H14I, with 0.000314 average fractional NGS count over selection days 2 and 3 (reads of this peptide / all reads for the bait, averaged over ….
For chain 1 L1Q, the screen value was 0.00176 average fractional NGS count over selection days 2 and 3 (reads of this peptide / all reads for the bait, averaged over ….
Take chain 1 L1Y: the screen value was 0.000392 average fractional NGS count over selection days 2 and 3 (reads of this peptide / all reads for the bait, averaged over ….
The same measure, in the same setting: to chain 1 L1T belongs 0.000919 average fractional NGS count over selection days 2 and 3 (reads of this peptide / all reads for the bait, averaged over …; to chain 1 A4F, 0.000957 average fractional NGS count over selection days 2 and 3 (reads of this peptide / all reads for the bait, averaged over ….
On the same count and under the same terms, then chain 1 A4D, with 0.000175 average fractional NGS count over selection days 2 and 3 (reads of this peptide / all reads for the bait, averaged over …; and chain 1 A4S, with 0.000138 average fractional NGS count over selection days 2 and 3 (reads of this peptide / all reads for the bait, averaged over ….
On the same count and under the same terms, then chain 1 A4T, with 0.000212 average fractional NGS count over selection days 2 and 3 (reads of this peptide / all reads for the bait, averaged over …; and chain 1 A4W, with 0.000419 average fractional NGS count over selection days 2 and 3 (reads of this peptide / all reads for the bait, averaged over ….
For chain 1 A4V, the screen value was 0.000321 average fractional NGS count over selection days 2 and 3 (reads of this peptide / all reads for the bait, averaged over ….
Same read-out and setting: to chain 1 Q3T belongs 0.000102 average fractional NGS count over selection days 2 and 3 (reads of this peptide / all reads for the bait, averaged over …; to chain 1 Q3G, 0.000192 average fractional NGS count over selection days 2 and 3 (reads of this peptide / all reads for the bait, averaged over ….
Turning to chain 1 Q3L, the screen value was 0.000335 average fractional NGS count over selection days 2 and 3 (reads of this peptide / all reads for the bait, averaged over ….
Turning to chain 1 Q3A, the screen value is 0.0023 average fractional NGS count over selection days 2 and 3 (reads of this peptide / all reads for the bait, averaged over ….
On the same count and under the same terms, then chain 1 Q3P, with 0.000624 average fractional NGS count over selection days 2 and 3 (reads of this peptide / all reads for the bait, averaged over …; and chain 1 Q12M, with 0.000359 average fractional NGS count over selection days 2 and 3 (reads of this peptide / all reads for the bait, averaged over …; and chain 1 Q12I, with 9.74e-05 average fractional NGS count over selection days 2 and 3 (reads of this peptide / all reads for the bait, averaged over ….
Still for that read-out and setting: then chain 1 E8L, with 0.000201 average fractional NGS count over selection days 2 and 3 (reads of this peptide / all reads for the bait, averaged over …; and chain 1 E8T, with 0.00026 average fractional NGS count over selection days 2 and 3 (reads of this peptide / all reads for the bait, averaged over ….
With chain 1 E8M, the screen value was 0.000135 average fractional NGS count over selection days 2 and 3 (reads of this peptide / all reads for the bait, averaged over ….
Turning to chain 1 E8P, the screen value was 0.00018 average fractional NGS count over selection days 2 and 3 (reads of this peptide / all reads for the bait, averaged over ….
Still for that read-out and setting: then chain 1 E8V, with 0.000436 average fractional NGS count over selection days 2 and 3 (reads of this peptide / all reads for the bait, averaged over ….
Still for that read-out and setting: then chain 1 E8W, with 0.000174 average fractional NGS count over selection days 2 and 3 (reads of this peptide / all reads for the bait, averaged over …; and chain 1 Q2V, with 0.000551 average fractional NGS count over selection days 2 and 3 (reads of this peptide / all reads for the bait, averaged over ….
Regarding chain 1 Q2L, the screen value is 0.00083 average fractional NGS count over selection days 2 and 3 (reads of this peptide / all reads for the bait, averaged over ….
On the same count and under the same terms, to chain 1 Q2Y belongs 0.000109 average fractional NGS count over selection days 2 and 3 (reads of this peptide / all reads for the bait, averaged over …; to chain 1 Q2P, 0.000458 average fractional NGS count over selection days 2 and 3 (reads of this peptide / all reads for the bait, averaged over …; to chain 1 Q2I, 0.000122 average fractional NGS count over selection days 2 and 3 (reads of this peptide / all reads for the bait, averaged over ….
On the same count and under the same terms, to chain 1 T5W belongs 0.000715 average fractional NGS count over selection days 2 and 3 (reads of this peptide / all reads for the bait, averaged over ….
chain 1 T5H: the screen value is 0.00114 average fractional NGS count over selection days 2 and 3 (reads of this peptide / all reads for the bait, averaged over ….
Consider chain 1 T5L, for which the screen value was 0.00104 average fractional NGS count over selection days 2 and 3 (reads of this peptide / all reads for the bait, averaged over ….
On the same count and under the same terms, then chain 1 T5Q, with 0.00116 average fractional NGS count over selection days 2 and 3 (reads of this peptide / all reads for the bait, averaged over ….
Same read-out and setting: to chain 1 T5G belongs 0.000124 average fractional NGS count over selection days 2 and 3 (reads of this peptide / all reads for the bait, averaged over …; to chain 1 T5D, 0.000166 average fractional NGS count over selection days 2 and 3 (reads of this peptide / all reads for the bait, averaged over …; to chain 1 T5Y, 0.00023 average fractional NGS count over selection days 2 and 3 (reads of this peptide / all reads for the bait, averaged over ….
As to chain 1 T5F, the screen value was 0.00053 average fractional NGS count over selection days 2 and 3 (reads of this peptide / all reads for the bait, averaged over ….
As for chain 1 T5V, the screen value was 0.00996 average fractional NGS count over selection days 2 and 3 (reads of this peptide / all reads for the bait, averaged over ….
Still for that read-out and setting: to chain 1 Q15L belongs 0.0017 average fractional NGS count over selection days 2 and 3 (reads of this peptide / all reads for the bait, averaged over ….
Still for that read-out and setting: then chain 1 Q15W, with 0.000288 average fractional NGS count over selection days 2 and 3 (reads of this peptide / all reads for the bait, averaged over …; and chain 1 Q15N, with 0.00022 average fractional NGS count over selection days 2 and 3 (reads of this peptide / all reads for the bait, averaged over …; and chain 1 Q15A, with 0.00403 average fractional NGS count over selection days 2 and 3 (reads of this peptide / all reads for the bait, averaged over ….
For chain 1 Q15I, the screen value is 0.00255 average fractional NGS count over selection days 2 and 3 (reads of this peptide / all reads for the bait, averaged over ….
Same read-out and setting: then chain 1 Q15V, with 0.000269 average fractional NGS count over selection days 2 and 3 (reads of this peptide / all reads for the bait, averaged over ….
chain 1 Q7P: the screen value was 0.000611 average fractional NGS count over selection days 2 and 3 (reads of this peptide / all reads for the bait, averaged over ….
Same read-out and setting: to chain 1 Q7L belongs 0.00305 average fractional NGS count over selection days 2 and 3 (reads of this peptide / all reads for the bait, averaged over …; to chain 1 Q7F, 0.000322 average fractional NGS count over selection days 2 and 3 (reads of this peptide / all reads for the bait, averaged over ….
Regarding chain 1 Q7N, the screen value was 0.000208 average fractional NGS count over selection days 2 and 3 (reads of this peptide / all reads for the bait, averaged over ….
With chain 1 Q7A, the screen value was 0.000124 average fractional NGS count over selection days 2 and 3 (reads of this peptide / all reads for the bait, averaged over ….
The same measure, in the same setting: then chain 1 Q7T, with 0.000305 average fractional NGS count over selection days 2 and 3 (reads of this peptide / all reads for the bait, averaged over ….

Variants of B2 are the subject of a further test. The test is described as above.
For the variant chain 1 T7N, the screen value was 0.00127 average fractional NGS count over selection days 2 and 3 (reads of this peptide / all reads for the bait, averaged over ….
Still for that read-out and setting: to chain 1 T7Y belongs 0.00199 average fractional NGS count over selection days 2 and 3 (reads of this peptide / all reads for the bait, averaged over …; to chain 1 T7H, 0.00103 average fractional NGS count over selection days 2 and 3 (reads of this peptide / all reads for the bait, averaged over ….
For the variant chain 1 T7L, the screen value was 0.000808 average fractional NGS count over selection days 2 and 3 (reads of this peptide / all reads for the bait, averaged over ….
On the same count and under the same terms, to chain 1 T7M belongs 0.000455 average fractional NGS count over selection days 2 and 3 (reads of this peptide / all reads for the bait, averaged over …; to chain 1 T7I, 0.000358 average fractional NGS count over selection days 2 and 3 (reads of this peptide / all reads for the bait, averaged over ….
On the same count and under the same terms, to chain 1 T7W belongs 0.00146 average fractional NGS count over selection days 2 and 3 (reads of this peptide / all reads for the bait, averaged over …; to chain 1 T7P, 0.000581 average fractional NGS count over selection days 2 and 3 (reads of this peptide / all reads for the bait, averaged over …; to chain 1 T7E, 0.000563 average fractional NGS count over selection days 2 and 3 (reads of this peptide / all reads for the bait, averaged over ….
As to chain 1 T7A, the screen value was 0.000494 average fractional NGS count over selection days 2 and 3 (reads of this peptide / all reads for the bait, averaged over ….
Still for that read-out and setting: then chain 1 T7G, with 0.00299 average fractional NGS count over selection days 2 and 3 (reads of this peptide / all reads for the bait, averaged over ….
Turning to chain 1 L3K, the screen value is 0.00157 average fractional NGS count over selection days 2 and 3 (reads of this peptide / all reads for the bait, averaged over ….
As to chain 1 L3M, the screen value was 0.000608 average fractional NGS count over selection days 2 and 3 (reads of this peptide / all reads for the bait, averaged over ….
Still for that read-out and setting: to chain 1 L3Q belongs 0.00366 average fractional NGS count over selection days 2 and 3 (reads of this peptide / all reads for the bait, averaged over …; to chain 1 L3I, 0.00105 average fractional NGS count over selection days 2 and 3 (reads of this peptide / all reads for the bait, averaged over ….
Still for that read-out and setting: then chain 1 L3D, with 0.000181 average fractional NGS count over selection days 2 and 3 (reads of this peptide / all reads for the bait, averaged over …; and chain 1 L3P, with 0.000422 average fractional NGS count over selection days 2 and 3 (reads of this peptide / all reads for the bait, averaged over …; and chain 1 L3T, with 0.00246 average fractional NGS count over selection days 2 and 3 (reads of this peptide / all reads for the bait, averaged over ….
On the same count and under the same terms, then chain 1 L3F, with 0.00165 average fractional NGS count over selection days 2 and 3 (reads of this peptide / all reads for the bait, averaged over ….

For the origin of these results see article PMC12102759 (2025).
